Results on 5 molecules are retold here after patent publication JP2007530675A (dated 2007).

Experiment [1] addresses T1, mu25/hu75 chimeric CS1-Fc (human/mouse chimera; human, UniProt P01857-1 99-330 = IgG part, limits assumed).
T1 construct: domain: Fc
Nature of the experiment: sandwich ELISA, captured chimeric CS1-Fc.

Experiment [2] addresses T2, hu25/mu75 chimeric CS1-Fc (human/mouse chimera; human, UniProt P01857-1 99-330 = IgG part, limits assumed).
T2 construct: domain: Fc
In words: sandwich ELISA, captured chimeric CS1-Fc. A general note: In an ELISA, binding on a coated surface is turned into a signal by an enzyme label.

Experiment [3] has as its target T3, CS1 ECD-Fcγ3 fusion protein (human, UniProt Q9NQ25 23-226).
T3 construct: also called CS1-γ3; CS1-Fc-γ3; not shown: constant region of human IgG3 (human Fc-γ3) from the vector
In words: direct binding ELISA, plate coated with 1 μg/ml soluble human CS1-human Fcγ3 fusion protein.

The target of experiment [4] is T4, human CS1-Fc fusion protein (Biacore analyte) (human, UniProt Q9NQ25 23-226, limits assumed).
T4 construct: kept apart; also called CS-Fc; not shown: Fc part
In words: SPR (BIAcore 2000), antibody immobilised, CS1-Fc as analyte. For orientation: SPR reads the build-up and loss of mass on a sensor chip optically.

Experiment [5] addresses T3, CS1 ECD-Fcγ3 fusion protein. Nature of the experiment: ELISA on CS1-γ3 fusion protein.
The target in experiment [6] is T5, full-length wild-type human CS1 (human, UniProt Q9NQ25 23-335).
T5 construct: Native CS1 on K562 and Daudi cells, myeloma and B-cell lines, tonsil/synovial and patient plasma cells; also called SLAMF7; 19A
Nature of the experiment: FACS on K562 and Daudi cells.

The target in experiment [7] is T6, CS1 ECD-myc-GPI (human, UniProt Q9NQ25 23-226, GPI linkage at the C-terminus).
T6 construct: also called NSO-CS1; not shown: myc tag and GPI linkage signal of the myc-GPI vector
Nature of the experiment: FACS on NSO-CS1 transfectants.

For experiment [8], the target named is T6, CS1 ECD-myc-GPI. Nature of the experiment: cell-based or functional assay.
For experiment [9], the target named is human CS1-Fc fusion protein (Biacore analyte) (human) (UniProt Q9NQ25). In words: SPR (BIAcore 2000), antibody immobilised, CS1-Fc as analyte, bivalent analyte model.

T2 sequence (P01857 other isoform, or with tags, fused parts or gaps mutant limits assumed): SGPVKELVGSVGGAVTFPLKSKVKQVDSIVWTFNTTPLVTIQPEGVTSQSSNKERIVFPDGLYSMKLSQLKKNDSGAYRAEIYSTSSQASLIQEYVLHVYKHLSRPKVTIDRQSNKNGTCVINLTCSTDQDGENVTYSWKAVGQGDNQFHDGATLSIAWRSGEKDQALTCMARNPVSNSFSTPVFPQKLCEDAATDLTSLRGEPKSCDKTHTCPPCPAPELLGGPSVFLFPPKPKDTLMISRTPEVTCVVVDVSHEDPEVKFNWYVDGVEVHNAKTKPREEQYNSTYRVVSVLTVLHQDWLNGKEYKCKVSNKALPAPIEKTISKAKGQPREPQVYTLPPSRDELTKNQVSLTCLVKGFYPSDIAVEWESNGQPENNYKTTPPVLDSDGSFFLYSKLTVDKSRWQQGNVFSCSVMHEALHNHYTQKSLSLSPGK
T1 sequence (P01857 other isoform, or with tags, fused parts or gaps mutant limits assumed): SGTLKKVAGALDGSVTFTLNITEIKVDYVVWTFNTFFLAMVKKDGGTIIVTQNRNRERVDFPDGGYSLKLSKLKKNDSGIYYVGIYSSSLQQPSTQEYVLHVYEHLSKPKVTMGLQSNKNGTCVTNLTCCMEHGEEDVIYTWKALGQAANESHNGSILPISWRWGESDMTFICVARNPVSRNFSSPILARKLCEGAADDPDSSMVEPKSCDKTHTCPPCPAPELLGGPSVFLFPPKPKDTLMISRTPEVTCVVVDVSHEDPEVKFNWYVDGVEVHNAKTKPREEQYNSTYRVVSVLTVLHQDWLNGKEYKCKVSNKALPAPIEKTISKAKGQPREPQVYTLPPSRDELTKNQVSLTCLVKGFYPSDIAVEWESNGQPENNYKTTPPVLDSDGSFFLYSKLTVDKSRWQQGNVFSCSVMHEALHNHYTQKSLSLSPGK

B1: Luc69 (antibody, V domains shown)
VH: QVQLQQSGPELVKPGASVKISCKASGYAFSNSWMNWVKQRPGQGLEWIGRIYPGDGDTKSNGKFKGKATLTADKSSRAAYMQLSSLTSVDSAVYFCARSTMIMTGAMDYWGQGTSVTVSS
VL: DIVMTQSHKFMSTSVGDRVIITCKASQDVSTAVAWYQQKPGQSPKLLIYSASFRYTGVPDRFTGSGSGTDFTFTVSSVQAEDLAVYYCQQHYSTPPYTFGGGTKLEIK
notes: mouse anti-human CS1 monoclonal
On to B1, for which the binding result in experiment [1] and in experiment [2] was “no binding (tested: 2 μg/ml)” each time.

B2: Luc63 (antibody, V domains shown)
VH: EVKLLESGGGLVQPGGSLKLSCAASGFDFSRYWMSWVRQAPGKGLEWIGEINPDSSTINYTPSLKDKFIISRDNAKNTLYLQMSKVRSEDTALYYCARPDGNYWYFDVWGAGTTVTVSS
VL: DIVMTQSHKFMSTSVGDRVSITCKASQDVGIAVAWYQQKPGQSPKLLIYWASTRHTGVPDRFTGSGSGTDFTLTISNVQSEDLADYFCQQYSSYPYTFGGGTKLEIK
notes: mouse anti-human CS1 monoclonal, IgG2a; also called MuLuc63; muLuc63
By EC50 is commonly meant the concentration needed to bring the measured effect to its halfway point. Lower therefore signals an effect from little substance. Turning to B2, a half-maximal effect in [3] (EC50) was put at 0.0661 µg/mL.

B3: Luc34 (antibody, V domains shown)
VH: QVQLQQSGAELARPGASVKLSCKASGYTFTSYWMQWVKQRPGQGLEWIGAIYPGDGDTRYTQKFKGKATLTADKSSSTAYMQLSSLASEDSAVYYCARGKVYYGSNPFAYWGQGTLVTVSA
VL: DIQMTQSSSYLSVSLGGRVTITCKASDHINNWLAWYQQKPGNAPRLLISGATSLETGVPSRFSGSGSGKDYTLSITSLQTEDVATYYCQQYWSTPWTFGGGTKLEIK
notes: mouse anti-human CS1 monoclonal; also called Luc34.1
With B3, the binding result was “no binding (tested: 2 μg/ml)” in experiment [1]; “no binding (tested: 2 μg/ml)” in [2]; “binds” in experiment [4]; “binds” in [5]; “binds” in experiment [6]; “binds” with CS1 ECD-myc-GPI [7].

B4: Luc90 (antibody, V domains shown)
VH: QVQLQQPGAELVRPGASVKLSCKASGYSFTTYWMNWVKQRPGQGLEWIGMIHPSDSETRLNQKFKDKATLTVDKSSSTAYMQLSSPTSEDSAVYYCARSTMIATRAMDYWGQGTSVTVSS
VL: DIVMTQSQKSMSTSVGDRVSITCKASQDVITGVAWYQQKPGQSPKLLIYSASYRYTGVPDRFTGSGSGTDFTFTISNVQAEDLAVYYCQQHYSTPLTFGAGTKLELK
notes: mouse anti-human CS1 monoclonal, IgG2b; also called Luc90.H1; Luc90H1
Regarding B4, in the experiment with CS1 ECD-myc-GPI [8], the “細胞傷害性(%) (ADCC, LDH release, PBMC effectors 20:1)” value is roughly 50%. For the same molecule, in [1], the binding result is reported as “no binding (tested: 2 μg/ml)”. Moreover, the binding result in [2] is reported as “no binding (tested: 2 μg/ml)”. Moreover, in experiment [9], the fold higher binding affinity than Luc34.1 was 28 fold and the fold higher binding affinity than Luc63.2 came out at 5.5 fold.

B5: HuLuc63 (antibody, human IgG1, V domains shown)
VH: EVQLVESGGGLVQPGGSLRLSCAASGFDFSRYWMSWVRQAPGKGLEWIGEINPDSSTINYAPSLKDKFIISRDNAKNSLYLQMNSLRAEDTAVYYCARPDGNYWYFDVWGQGTLVTVSS
VL: DIQMTQSPSSLSASVGDRVTITCKASQDVGIAVAWYQQKPGKVPKLLIYWASTRHTGVPDRFSGSGSGTDFTLTISSLQPEDVATYYCQQYSSYPYTFGQGTKVEIK
notes: human IgG1/κ, transiently expressed in 293-H cells; also called humanized Luc63
Molecule B5 gave an EC50 in [3] of 0.0701 µg/mL.
